In article doi:10.1101/577460:

Target: microtubules (porcine brain Tubulin) (porcine (brain)) (UniProt P02550)
Test: turbidimetry

Sequence of LEM2_(188-212) peptide (Q8NC56 188-212): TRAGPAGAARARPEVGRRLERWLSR
Sequence of LEM2_(1-208) (Q8NC56 1-208): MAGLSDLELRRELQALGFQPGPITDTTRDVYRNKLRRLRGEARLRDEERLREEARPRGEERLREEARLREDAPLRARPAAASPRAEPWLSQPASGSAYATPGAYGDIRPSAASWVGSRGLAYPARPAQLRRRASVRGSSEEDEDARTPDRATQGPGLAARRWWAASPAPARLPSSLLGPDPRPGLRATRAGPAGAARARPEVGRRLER

Substance | half-maximal scattering concentration (MT bundling) [µM] | half maximal concentration (MT bundling) [µM]
LEM2_(1-208) (from UniProt Q8NC56 1-208) (domain or fragment) | 1.3 | –
LEM2_(188-212) peptide (from UniProt Q8NC56 188-212) | – | 85.1
